pKd, pKi: −log10 of the molar value. Blank lines part the entries; values can stand above or below the substance they belong to.
What was measured:
[1] = target: Wild-type PCNA (human) (human) (UniProt P12004)
[2] = test system: DNA polymerase delta (pol δ), exonuclease-deficient (human); test: fluorescence anisotropy; settings: 10 mM Mg2+; estimated from partial binding curve, single measurements; 25 mM TrisOAc pH 7.7, 10 mM Mg(OAc)2, 125 mM KOAc, 0.1 mg/ml BSA, 1 mM DTT, ionic strength adjusted to 200 mM with KOAc, room temperature
[3] = test system: DNA polymerase eta (pol η) (human); test: fluorescence anisotropy; settings: 10 mM Mg2+; 25 mM TrisOAc pH 7.7, 10 mM Mg(OAc)2, 125 mM KOAc, 0.1 mg/ml BSA, 1 mM DTT, ionic strength adjusted to 200 mM with KOAc, room temperature
[4] = test system: DNA polymerase delta (pol δ), exonuclease-deficient;Cy5-PCNA (human;human); test: FRET; settings: 3'-biotin (Neutravidin bound); 25 mM TrisOAc pH 7.7, 10 mM Mg(OAc)2, 125 mM KOAc, 0.1 mg/ml BSA, 1 mM DTT, ionic strength adjusted to 200 mM with KOAc, room temperature; cited from earlier work
[5] = test system: DNA polymerase eta (pol η);Cy5-PCNA (human;human); test: FRET; settings: pol η titrated onto Cy5-PCNA loaded by RFC (100 nM each), 1 mM ATP; 3'-biotin (Neutravidin bound); 25 mM TrisOAc pH 7.7, 10 mM Mg(OAc)2, 125 mM KOAc, 0.1 mg/ml BSA, 1 mM DTT, ionic strength adjusted to 200 mM with KOAc, room temperature
[6] = target: Cy3-pol η (human DNA polymerase eta, full length, N-terminally labeled with Cy3) (human) (UniProt Q9Y253); test: FRET or BRET; competitive inhibition: pre-assembled Cy3-Pol η•Cy5-PCNA complex (200 nM Cy3-Pol η, 20 nM Cy5-PCNA) titrated with unlabeled competitor (PCNA, (Ub)3-PCNA or pol η, 0-5 μM); dose-response model, Ki from IC50 by the Munson-Rodbard solution; room temperature; replication assay buffer, ionic strength 200 mM
Cy3-pol η (human DNA polymerase eta, full length, N-terminally labeled with Cy3) (human), sequence (Q9Y253 whole entry): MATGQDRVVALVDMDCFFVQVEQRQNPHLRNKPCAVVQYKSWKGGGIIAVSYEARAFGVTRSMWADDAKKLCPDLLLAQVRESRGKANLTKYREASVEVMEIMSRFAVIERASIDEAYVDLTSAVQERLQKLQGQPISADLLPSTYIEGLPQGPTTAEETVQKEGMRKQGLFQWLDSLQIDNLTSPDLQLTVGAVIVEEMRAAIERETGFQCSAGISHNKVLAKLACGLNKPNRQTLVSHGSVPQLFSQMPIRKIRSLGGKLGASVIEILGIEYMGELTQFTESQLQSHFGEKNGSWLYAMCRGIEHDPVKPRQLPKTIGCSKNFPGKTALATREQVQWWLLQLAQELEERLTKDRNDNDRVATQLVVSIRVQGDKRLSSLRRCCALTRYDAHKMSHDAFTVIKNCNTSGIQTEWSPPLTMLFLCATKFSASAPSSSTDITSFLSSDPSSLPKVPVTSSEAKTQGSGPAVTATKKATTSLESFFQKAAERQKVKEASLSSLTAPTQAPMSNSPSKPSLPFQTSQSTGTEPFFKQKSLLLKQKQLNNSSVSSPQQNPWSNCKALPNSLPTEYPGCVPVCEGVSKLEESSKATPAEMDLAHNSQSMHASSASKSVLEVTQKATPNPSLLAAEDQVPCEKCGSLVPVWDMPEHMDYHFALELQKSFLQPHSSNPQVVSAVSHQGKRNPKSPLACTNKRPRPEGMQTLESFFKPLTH

Wild-type PCNA (human) (human), sequence (P12004 whole entry): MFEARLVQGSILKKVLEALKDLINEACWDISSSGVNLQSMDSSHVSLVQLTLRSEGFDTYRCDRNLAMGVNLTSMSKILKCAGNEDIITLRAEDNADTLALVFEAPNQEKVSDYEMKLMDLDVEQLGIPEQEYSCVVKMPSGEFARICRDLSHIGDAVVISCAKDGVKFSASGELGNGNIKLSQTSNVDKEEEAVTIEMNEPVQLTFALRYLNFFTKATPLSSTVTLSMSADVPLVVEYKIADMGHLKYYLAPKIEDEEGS

probability of insertion (Pi) of pol δ in single turnover primer extension on TT P/T DNA in the presence of PCNA (plateau i = 15 to i = 25); no DNA synthesis without PCNA [1]: 0.999
Substance: Exonuclease-deficient human DNA polymerase delta (D402A in the catalytic POLD1 subunit) (from UniProt P28340 1-1107) (complex)

Substance: FLUOR-P/T DNA
pKd [2]: 6.27
pKd [3]: 7.53

Substance: Forked Cy3-P/T DNA
pKd [4]: > 8.00
pKd [5]: 7.55

pKi [6]: 6.92
Substance: Monoubiquitinated PCNA ((Ub)3-PCNA): a single ubiquitin moiety on K164 of each monomer within a homotrimeric clamp ring (from UniProt P12004 1-261; P0CG48 1-76) (complex)

Source: article PMC5123862
